From US12714749B2, “Anti-CK8 antibody and exosome compositions, methods of making, and methods of treating” (PEAK WAY GROUP INC., priority 2022, dated 2026) come the findings set out here.

Where two headings read alike, the source gives them in different places.

The test system of one assay is MCF-7/MX cells. Briefly: SRB method, sensitivity of cells to chemotherapy drugs. The format is cell-based. Particulars: Homo sapiens, MCF7/MX, read-out: IC50 of chemotherapy drug. Here is the method: The SRB method was used to detect the sensitivity of cells to chemotherapy drugs: 800 μg/L mitoxantrone was added in the process of culturing MCF-7/MX cells to maintain drug resistance, and the drug administration stopped two weeks before experiment. 100 μg/mL CK8-1R5 monoclonal antibody and/or 100 μg/mL BCRP inhibitor KS176 (Bai Olette, product No.: M01428) were added into cell culture wells of MCF-7/MX cells, and the culture medium was added for blank control. After 24 hours of culture, digestive cells were inoculated into a 96-well plate, with 2000 cells/well, and 3 double wells. The cells were continued to be cultured for 24 h until complete adherence. After adding different concentrations of chemotherapy drugs (mitoxantrone, topotecan, and daunorubicin) to act for 48 h, the culture was terminated. 50 IA of pre-cooled 50% (mass/volume) trichloroacetic acid was added into each well for immobilizing cells, and the culture plate was transferred into a refrigerator at 4° C. after standing for 1 h; the culture plate was taken, each well was washed with deionized water 5 times to remove TCA, and then dried in air; after complete drying, 100 μl of 0.4% SRB prepared with 1% acetic acid was added into each well and stained for 30 min at room temperature, and then the solution in each well was discarded; the well was washed 5 times using 1% acetic acid to remove unbound dye, and dried in air; 150 μl of 10 mM Tris alkaline solution with pH 10.5 was used for dissolving the sample in each well, the sample was oscillated for 5 min on a flat oscillator, and the absorbance of each well at 490 nm was measured on a BioRad microplate reader. The IC50 value was calculated using Prism software.
Background: Sulforhodamine B stains cellular protein and so reports cell mass.

The target of assay [1] is T1, CK8 protein (Homo sapiens, UniProt P05787).
T1 construct: made in house; host or cells: E. coli BL21 (DE3), vector pET-28a(+)
T1 sequence (P05787 1-483): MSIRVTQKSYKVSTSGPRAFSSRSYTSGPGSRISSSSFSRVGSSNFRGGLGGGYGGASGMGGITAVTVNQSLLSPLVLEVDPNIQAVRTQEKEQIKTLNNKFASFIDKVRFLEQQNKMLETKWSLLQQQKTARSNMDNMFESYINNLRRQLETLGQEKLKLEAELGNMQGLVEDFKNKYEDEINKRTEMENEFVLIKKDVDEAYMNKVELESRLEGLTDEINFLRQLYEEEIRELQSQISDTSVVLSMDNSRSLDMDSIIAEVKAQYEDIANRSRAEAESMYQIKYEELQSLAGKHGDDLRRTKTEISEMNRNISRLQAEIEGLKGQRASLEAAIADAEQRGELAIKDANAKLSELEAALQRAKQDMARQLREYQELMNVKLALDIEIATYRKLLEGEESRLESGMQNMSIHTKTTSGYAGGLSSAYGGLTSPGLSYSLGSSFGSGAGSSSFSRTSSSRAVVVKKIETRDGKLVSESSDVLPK
Description: Indirect ELISA titer of monoclonal antibody. The format is binding. Here is the method:
The titer of monoclonal antibodies was determined using an indirect ELISA method. An ELIASA plate (100 μl/well) was coated with […] of purified recombinant CK8 protein overnight at 4° C., and sealed for 1 h at 10% BSA room temperature. Different concentrations of CK8-1R5 monoclonal antibodies subjected to multiple dilution were added respectively, and incubated at 37° C. for 1 h. After washing 3 times with 0.05% PBST, HRP labeled sheep anti-mouse IgG with a dilution of 1:2000 was added, and the obtained mixture was incubated at 37° C. for 1 h and then washed. A developing agent ABTS was added, and the absorbance (A) value at a wavelength of 405 nm was read on microplate reader. Simultaneously, SP2/0 myeloma cell culture supernatant was used as negative control. The highest dilution ratio of the sample that produces a positive reaction was used as its potency.
Background: In an ELISA, binding on a coated surface is turned into a signal by an enzyme label.

In assay [2] the target is T1, CK8 protein. Briefly: Specificity identification by ELISA. Type of assay: binding. Particulars: plate coated with CK8 protein, MCF7 cell lysate, BSA, Escherichia coli lysate, NIH3T3 lysate; FIG. 3. Here is the method: Specificity identification: each 1 μg of CK8 protein, MCF7 cell lysate, BSA, Escherichia coli lysate and mouse fibroblast NIH3T3 lysate was used to coat the ELISA plate, with PBS wells as blank control. After washing with PBS, 2.5% skimmed milk was added and the plate was sealed at room temperature for 1 h. After washing with PBS, 1:10 diluted cell culture supernatant (monoclonal antibody, primary antibody) was added, the plate was incubated at 37° C. for 1 and washed with 0.05% PBST 3 times, 1:2000 diluted HRP labeled sheep anti-mouse IgG (second antibody) was added, washed after incubation at 37° C. for 1 h, a developing agent ABTS was added, and the absorbance (A) value at 405 nm wavelength was read on the microplate reader.

Assay [3] deals with T1, CK8 protein. Briefly: Binding ability test (antibody on aminopropyl sensor, spectral phase difference). The note with it: fit from binding and dissociation phase difference; read-out: affinity for CK8 protein. How it is done:
Binding ability test: 1 mg of CK8-1R5 monoclonal antibody was taken and dispersed into 1 mL of PBS buffer solution; the prepared antibody dispersion was immobilized on an aminopropyl sensor, the sensor immobilized with the antibody was balanced in PBS buffer and then interact with different concentrations of CK8 protein solutions respectively, and then the spectral phase difference caused by CK8 protein binding to the antibody was recorded. After binding equilibrium, the sensor was placed in PBS buffer, the spectral phase difference caused by protein dissociation from the antibody was recorded, and the antibody's affinity to the protein was fit based on the phase difference.

A further assay relates to MCF7/MX cells. Briefly: Tumor growth in mice subcutaneously inoculated with MCF7/MX cells. The format is in vivo. The note with it: after 14 days of administration; FIG. 4. Here is the method:
MCF-7 was selected as a source cell of a tumor exosome, and the culture medium was DMEM with 10% Fetal bovine serum. After being transferred to a cell incubator (37° C. constant temperature, volume fraction, 5% CO2) for 48 h, the supernatant of tumor cells was collected and gradient centrifuged (2000×g, centrifuge, 20 min, 10000×g, centrifuge for 30 min) to remove cell debris, large vesicles were removed using a 0.22 μm filter; the filtrate was centrifuged for 70 min at 100000×g, the supernatant was discarded and then resuspended with 100 μL of DPBS at the bottom of a centrifuge tube, and the exosomes were recovered and stored at […] in refrigerator for future use. […]
After the inguinal areas of mice were subcutaneously inoculated with 5×10^5 MCF7/MX cells for 7 d, tumor bearing mice were randomly divided into 5 groups according to random number table: blank control group, exosome group loaded with erythromycin, exosome group loaded with CK8-1R5 monoclonal antibody combined with erythromycin, CK8-1R5 monoclonal antibody group, and erythromycin group. […] After 14 days of the first administration, the mice were euthanized and the tumor volume=short diameter^2×Long diameter/2 was measured[…].

The mark [4] stands for this setting: MCF-7/MX cells without inhibitor, drug 48 h.

One may read the IC50 as the point on the concentration scale where inhibition reaches its midpoint.

Take `CC[C@@]1(O)C(=O)OCc2c1cc1n(c2=O)Cc2cc3c(CN(C)C)c(O)ccc3nc2-1` [Topotecan, topotecan]: the IC50 in the assay with MCF-7/MX cells (setting [4]) was 18 ± 1.34 µM.

As for `COc1cccc2c1C(=O)c1c(O)c3c(c(O)c1C2=O)C[C@@](O)(C(C)=O)C[C@@H]3O[C@H]1C[C@H](N)[C@H](O)[C@H](C)O1` [Daunorubicin, daunorubicin], in the assay on MCF-7/MX cells (48 h), the IC50 was 0.431 ± 0.0102 µM.

As to `O=C1c2c(O)ccc(O)c2C(=O)c2c(NCCNCCO)ccc(NCCNCCO)c21` [Mitoxantrone, mitoxantrone], the half-inhibitory concentration (IC50) in the assay with MCF-7/MX cells (setting [4]) worked out at 25 ± 1.35 µM.

B1: CK8-1R5: mouse monoclonal antibody (IgG1) specifically binding to CK8; heavy chain variable region SEQ ID NO: 1, light chain SEQ ID NO: 2 (antibody, V domains shown)
VH: EVQLVESGGGLVQPGGSLRLSCAASGFSLSIPYIYWVRQAPGKGLEWVGAQGCGNFYLGWFGVMSRFTISKDNSKNTLYLQMNSLRAEDTAVYYCARFYGMVEIEHVEDVWGQGTLVTVSS
VL: AYQMTQSPSSVSASVGDRVTITCVQPKPHPMCRKWYQQKPGKAPKLLIYMQKDQDNGVPSRFSGSGSGTDFTLTISSLQPEDFATYYCFFPRSRTVCDPKEFGGGTKVEIK
modifications: Glu Val Gln Leu Val Glu Ser Gly Gly Gly Leu Val Gln Pro Gly Gly Ser Leu Arg Leu Ser Cys Ala Ala Ser Gly Phe Ser Leu Ser Ile Pro Tyr Ile Tyr Trp Val Arg Gln Ala Pro Gly Lys Gly Leu Glu Trp Val Gly Ala Gln Gly Cys Gly Asn Phe Tyr Leu Gly Trp Phe Gly Val Met; The amino acid sequence of the present application is artificially synthesized
With B1, the “absorbance (A) value at 405 nm” value in the assay with CK8 protein [1] (antibody dilution 1:400) is on record as 1.679; with CK8 protein [1] (antibody dilution 1:800) it was 1.136; in the assay with CK8 protein [1] (antibody dilution 1:1600), 0.821; with CK8 protein [1] (antibody dilution 1:3200), 0.596; with CK8 protein [1] (antibody dilution 1:6400) it was 0.284. The specificity of binding result with CK8 protein [2] is recorded as “only binds to CK8 protein or MCF7 cell lysate expressing the CK8 protein”. In the assay with CK8 protein [3], the Kd was 0.00633 µM. Also, the “tumor volume difference versus blank control group” value in the assay with MCF7/MX cells was “no statistically significant difference (P>0.05)”.
